Substrate: Cc1c(CC(=O)NCCCC[C@H](NC(=O)CCN)C(=O)O)c(=O)oc2cc(N)ccc12
Experiment: cells, lysate or membranes
Conditions: HBSS with 20 mM Hepes, 300 mOsmol/kg (control); fluorescent substrate 0-500 μM

B1: PepT2 (Oreochromis mossambicus) (protein)
chain: MGKKLFGTNYPVSICFIVVNEFCERFSYYGMKALLTLYFLNYLKWDKDLSTAVYHAFSGLCYFTPILGAFIADSWLGKYKTIIYLSIVYVIGHVVKSVGAIPTVGSTELHIALSMSGLILIALGTGGIKPCVAAFGGDQFGEEHITERQKFFSIFYMSINAGSFLSTIITPILRGDVQCFGGDCYALAFGVPAALMVVALVVFIAGSSLYKRTPPQGNILWEVCNCIGFALKNRWNKSKHDSPRQHWLDWAEEKYSMRLIQEIKMVLRVLVLYIPLPMFWALFDQQGSRWTLQATRMNLAFGNSFAIKPDQMQMLNALLILVFVPIFDLIIYPLVRLCGLKITPLRKMAVGMVFAALAFGAATLVEVNVVKTVVNPAPAGKCLLQVVNLAKGDVSLKAPGTDLFLQSIKYLEDPPGYETVPLSNGELNLEVTGVNGETFSATQKVEEKKAYSVIIYPDAAGITYTLVEDHITKNEDGNPLLRFLNTQPEALNVTVGDKNFYMSSGYNVTHNKTVQRGEYTHATCISNSGKTSKLNLGLLDFGACYTVILTEEAGEIVPHKIEDVKANNVHIAYQIPQYILITAGEVMFSITGLEFSYSQAPANMKSVLQAGWLLTVAFGNVIVLIVAEGAGLEQWIEFLLFACLLLGVCIIFSIMAHFYTYVDPEEMEKLYLENSVKEEDDSDFKKKNNEIQLNKTGKSTRM
B1 was tested, and the Km was 178.78 ± 19.78 µM.
